Laboratory results reported in patent US20170008971A1.

How the values were obtained:
[1] = biological target: CD3 on Jurkat cells (human) (UniProt P07766); assay: binding to Jurkat cells (data not shown; Scatchard assay presumed)
[2] = biological target: human epidermal growth factor receptor 2 (HER2) on cells (human) (UniProt P04626); assay: competitive Scatchard analysis, 125I-trastuzumab Fab tracer on SKBR-3 cells

HER2 T cell dependent bispecific antibody (HER2-TDB), huIgG1, knob arm humanized anti-HER2 4D5 (trastuzumab), hole arm humanized anti-CD3 UCHT1.v9
Kd [1]: 4.7 nM
Kd [2]: 5.4 nM
